# Reference: publication PMC3087300 (Bioorganic & medicinal chemistry, 2009)
# Read-outs that look alike come from different tables or passages of the source.
# Target: PSA (Homo sapiens, UniProt P07288)
# Sequence (P07288 25-261): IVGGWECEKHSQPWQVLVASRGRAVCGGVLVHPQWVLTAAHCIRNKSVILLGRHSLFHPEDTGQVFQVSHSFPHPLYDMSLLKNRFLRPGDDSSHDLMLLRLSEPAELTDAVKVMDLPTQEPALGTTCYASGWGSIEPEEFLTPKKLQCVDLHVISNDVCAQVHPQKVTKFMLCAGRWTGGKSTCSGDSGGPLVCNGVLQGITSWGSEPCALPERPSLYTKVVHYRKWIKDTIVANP
substance,measurement,setting,value
(Re) SAAC-SSQn(boro)L [Compound 47],Ki,"P2-P3 screen boronic acids and PSA imaging agents, Table 2",0.0284 ± 0.0021 µM
same,Ki,"read-out: Ki for PSA, boronic acid inhibitors",0.028 µM
